Laboratory results: patent publication US20200223906A1 (Adimab, published 2020)

What was measured:
[1] = target: T1, RSV F subtype B, furin-cleaved ectodomain stabilized in the prefusion conformation (DS-Cav1) (Respiratory syncytial virus subtype B); assay: BLI, IgG on AHQ sensor, 100 nM antigen
T1 construct: extracellular domain; Trimeric soluble antigen; also called Prefusion subtype B

[2] = target: RSV F protein of subtype A (strain A2) on recombinant mKate-RSV virus (Respiratory syncytial virus subtype A …, UniProt P03420 26-574); assay: cell-based or functional assay
[3] = target: RSV F protein of subtype B (18537) on recombinant mKate-RSV virus (Respiratory syncytial virus subtype B …, UniProt P13843 26-574); assay: cell-based or functional assay
[4] = target: T2, RSV F subtype A, furin-cleaved ectodomain stabilized in the prefusion conformation (DS-Cav1) (Respiratory syncytial virus subtype A, UniProt P03420 26-524); assay: BLI, IgG on AHQ sensor, 100 nM antigen
T2 construct: extracellular domain; Trimeric soluble antigen; also called Prefusion subtype A

Binder	Kd [1] [nM]	Neut IC50 (µg/ml) subtype A [2] [µg/mL]	Neut IC50 (µg/ml) subtype B [3] [µg/mL]	Kd [4] [nM]
ADI-18894 (antibody, V domains shown, full-length IgG from yeast; also called Antibody Number 249; Ab # 249) VH: QVQLVQSGGGVVQPGRSLKHSCAASGFTFNNYAIHWVRQAPGKGLEWVAAISYDGSNEYYSNSVKGRFTISRDNSKYTLYLQMNSLRPEDTAVYYCARGASYYYVSSDLGYWGQGTLVTVSS VL: QPVLTQPPSVSGAPGQRVTISCTGSSSNIGSGYDVHWYQQLPGTAPKVVIYGNINRPSGVPERFSGSKSGTSASLAITGLQAEDEADYYCQSYDSLSASWVFGGGTKLTVL	0.327	0.345	0.123	–
ADI-18905 (antibody, V domains shown) VH: EVQLVESGPTLVKPSETLSLTCVVSGGSVYRSSNYWAWIRQPPGKGLEWIGSVYHSGNPYSNPSLQSRVSVSIDTSKNQFSLKLYSVTAADSAIYYCACKRADADDVDYVAGLTGFPWYFDVWGRGTLVTVSS VL: EIVLTQSPSTLSASVGDRVTITCRASQSISSWLAWYQQKPGKTPKLLIYKASTLESGVPSRFSGSGSGTEFTLTISSLQPDDFATYYCQQYHVYFPLTFGGGTKVEIK	–	0.685	3.68	–
ADI-18907 (antibody, V domains shown, full-length IgG from yeast; also called Antibody Number 262; Ab # 262) VH: QVQLVQSGPEVKKPGSSVKVSCKASGGTFSSYAITWVRQAPGQGLEWMGGIIPSFDRVDYSRNFKGRVTFTADKSANTAYMELTNVRSDDTAVYYCARGCCGAVAGFQHWGQGTGVTVSS VL: DIVLTQTPATLSLSPGETATLSCRASQSVTTYLAWYQQKPGQAPRLLIYDASNRATGVPTRFSGSGSGTDFTLTISSLEPEDYAIYYCQQRTTGVTFGGGTKVEIK	0.204	3.3	> 10	–
ADI-18957 (antibody, V domains shown, full-length IgG from yeast) VH: EVQLLESGGGLVKPGESLRLSCAASGFTLSGYYMNWVRQAPGRGLEWVSSISGGSNYINYADSVKGRFTISRDNAKNSLYLQMNSLRVEDTAVYYCARVHVDLVTTIFGVDFDFWGQGTLVTVSS VL: QSVLTQPPSVSGAPGQRVTISCTGSSSNIGAGYDVHWYQQLPGTAPKLLIYGNTNRPAGVPDRFSGSKSGSSASLAITGLQAEDEADYYCQSYDSSLSGAIFGGGTKLTVL	0.324	1.34	6.08	–
ADI-18931 (antibody, V domains shown, full-length IgG from yeast; also called Antibody Number 285; Ab # 285) VH: EVQLVESGGGLQKPGRSLRLSCSASGFTFGDYAMSWFRQAPGKGLEWVGFIRSKAYVGTAEYAASVKGRFTISRDDSKSIAYLHMNSLKTEDTAVYYCTRDDILTGFYDRSYYYGIHVWGQGTTVTVSS VL: EIVMTQSPVTLSVSPGERATLSCRASQSVNSNLAWYQKKPGQAPRLLIYSASTRATGVPARFSGSGSGTEFTLTVSSLQSEDFAVYYCQQYDNWPPYTFGQGTKVEIK	0.488	> 10	> 10	–
ADI-18884 (antibody, V domains shown, full-length IgG from yeast; also called Antibody Number 240; Ab # 240) VH: EVQLVESGAEMKKPGASVKVSCKASGYTFTNYAIHWVRQAPGQSLEWMGWINAGNGNTQYSQKFQGRVTFTRDTSASTVYMDLSSLRSEDTAVYYCARGQIVVIPRANFWFDPWGQGTLVTVSS VL: not shown	0.204	0.073	0.239	–
ADI-18959 (antibody, V domains shown, full-length IgG from yeast; also called Antibody Number 310; Ab # 310) VH: QVQLVQSGAEVKKPGASVRVSCKVYGHTLSELSMHWVRQGPEGGLEWMGAFDHEDGEGIYPQKFQGRITMTADISTDTAHMELRSLRSEDTAVYYCATPTPVGATDFWGQGTLVTVSS VL: DIRVTQSPSSLSASVGDRVTITCRASQSISSYLNWYQQKPGKAPKLLIYAASTLQRGGPSRFSGSGSGTDFTLSISSLQPEDFATYYCQQTYIIPYTFGQGTKLEIK	–	7.21	2.26	4.68
ADI-18929 (antibody, V domains shown) VH: QVQLVQSGGGLVKPGGSLRLSCAASGFTFNDYYMNWIRQAPGKGLEWVSYISSSGETKYYADSVKGRFTISRDNAKNSLYLEMNSLRVEDTAVYYCARDAVIVVGPVAVHYQYYADVWGKGTTVTVSS VL: not shown	–	0.261	0.369	–
ADI-18925 (antibody, V domains shown) VH: QVQLVESGGGVVQPGRSLRLSCAASGFPFSLYAMHWVRQAPGKGLEWVAFISYDGSNKYYADSVKGRFTISRDSSKNTLYLQMDSLTPEDTAVYYCAKPIVGPTTGYFDYWGPGTLVTVSS VL: EIVLTQSPATLSLSPGERATLSCRASQSVSSYLAWYQQKPGQAPRLLIYDASNRATGIPARFSGSGSGTDFTLTISSLEPEDFAVYYCQQRSNWYTFGQGTKVEIK	–	> 10	> 10	–
ADI-18944 (antibody, V domains shown, full-length IgG from yeast) VH: QVQLVQSGAEVKKPGASVKVSCKTSGYTFSNYGISWLRQAPGQGLEWMAWISPYNGNTKSAQRFQGRVIMTTDTSTRTAHMEVKSLRTDDTATYYCARDPAVDAIPMLDYWGQGTTVTVSS VL: DIQVTQSPLSLPVTLGQPASISCRSSQSLVYTDGNTYLSWFQQRPGQSPRRLIYRVSHRDSGVPDRFTGSGSGTDFTLIIRRVEAEDVGVYYCMQGTHWPLTFGGGTKVEIK	0.337	0.026	0.074	–
ADI-18972 (antibody, V domains shown, full-length IgG from yeast; also called Antibody Number 320; Ab # 320) VH: QVQLVQSGAEVKKPGASVKVSCKTSGYTFSNYGISWLRQAPGQGLEWMAWISPYNGNTKSAQRFQGRVIMTTDTSTRTAHMEVKSLRTDDTATYYCARDPAVDAIPMLDYWGQGTLVTVSS VL: DIQMTQSPLSLPVTLGQPASISCRSSQSLVYTDGNTYLSWFQQRPGQSPRRLIYRVSHRDSGVPDRFTGSGSGTDFTLIIRRVEAEDVGVYYCMQGTHWPLTFGGGTKLEIK	0.368	0.016	0.107	–
ADI-18949 (antibody, V domains shown, full-length IgG from yeast) VH: QVQLVQSGAEVKKPGASVKVSCKTSGYTFSNYGISWLRQAPGQGLEWMAWISPYNGNTKSAQRFQGRVIMTTDTSTRTAHMEVKSLRTDDTATYYCARDPAVDAIPMLDYWGQGTMVTVSS VL: EIVLTQSPLSLPVTLGQPASISCRSSQSLVYTDGNTYLSWFQQRPGQSPRRLIYRVSHRDSGVPDRFTGSGSGTDFTLIIRRVEAEDVGVYYCMQGTHWPLTFGGGTKVEIK	0.308	0.04	0.076	–
ADI-18956 (antibody, V domains shown, full-length IgG from yeast) VH: QVQLVQSGAELKKPGSSVKVSCKASADTFKSYAINWVRQAPGQGLEWMGEFIPIFGVSPSAQKFQGRVTITADRSTSTAYMELSSLKSDDSAIYYCATRLYTLGSPFDNWGQGTTVTVSS VL: QPVLTQPRSVSGSPGQSVTISCTGTSSDVGDYDYVSWYQHLPGEVPKLIVYNVIKRPSGVPDRFSGSKSGNTASLTISGLQAEDEADYYCCSYAGRYIYVFGSGTKLTVL	0.224	> 10	> 10	–
ADI-18910 (antibody, V domains shown, full-length IgG from yeast; also called Antibody Number 265; Ab # 265) VH: QVQLVQSGAEVKKPGSSVKVSCKASGGTFSSYAISWVRQAPGQGLEWMGGIIPMFDIVDYAQKFQGRVTITADESTNTAYMELTSLRSEDTAVYYCARTAALGPPGTIVGYMDVWGKGTTVTVSS VL: DIVMTQSPLSLPVTPGEPASISCRSSQSLLQSNGYNYLDWYLQKPGQAPQLLIYLGSNRASGVPDKFSGSGSGTDFTLKISRVEAEDVGVYYCMQTLQTPWTFGQGTKVEIK	10.6	> 10	0.767	–
ADI-18901 (antibody, V domains shown) VH: EVQLVESGAEVKRPGASVKISCKASEYAFTAHYLHWVRQAPDQGLEWMGWISPKSGGTNYAQKFHGRVSMTSDTSISTVYMELSSLTSDDTAVYYCARSSLVGASPNFDFWGQGTLVTVSS VL: QSVLTQPPSVSAAPGQRVTISCSGSSSNIGNNYVSWYQQLPGTTPKVLIYDNNQRPSGIPDRFSGSKSGTSATLAISGLQTGDEAVYYCGTWDASLSAAMVFGGGTKLTVL	–	5.65	5.76	–
ADI-18943 (antibody, V domains shown, full-length IgG from yeast) VH: QVQLQESGPGLVKPSETLSLTCSVSGASVTSREYYWGWIRQAPGKGLQWIASIHHSPFQSDGNPSLTSRVSSSVVTSKNQLALRLSSVTAADTAVYYCAGAFWEVWTGLYSPPFDFWGQGILVTVSS VL: EIVMTQSPGTLSLSPGERATLSCWASQTVSSGYLAWYQQKPGQAPRLLIYGASTRATDIPDRFSGSGSGTGFTLTISRLEPEDLAVYYCQQYSSSPLTFGGGTKVEIK	0.725	0.027	0.043	–
ADI-18940 (antibody, V domains shown, full-length IgG from yeast) VH: QVQLVQSGAGVKKPGASVRVSCTASGYTFTDYFINWVRQAPGGGLEWMGWVNPLSGATRYAQNFAGRVTMTTDTSITTGYLDLRNLRLDDTAVYFCASQSSPYTPGAMDVWGQGTTVTVSS VL: DIVMTQSPSSLSASVGDRVSITCRTSQTISGYISWYQKKPGKAPKLLIYAASNMYSGVPSRFSGSESGTDFTLTITSLQPEDFATYFCQLNSGALFTFGPGTKVDIK	1.56	0.023	0.063	–
ADI-18965 (antibody, V domains shown) VH: QVQLVQSGAEVKKPGASVKISCKASGYPFSSYPMHWVRQAPGQRLEWMGWINVDNENTKYSWKFRGRVTITRDTSASTVYMELSSLISEDTAVYYCGRDWDGAIRVLDYWGQGTLVTVSS VL: DIVMTQTPDSLAVSLGERATITCKSSQSVLFSSDNKNYLAWYQQKPGQPPKLLIYWASIRESGVPDRFGGSGSGTHFTLTITSVQAADVAVYYCQQYYGNFPTFGQGTRLEIK	–	3.02	6.89	–
ADI-18962 (antibody, V domains shown, full-length IgG from yeast) VH: QVQLVQSGGGLVKPEGSLRLSCAASGFTFSSYSMNWVRQAPGKGLEWVSSISSSSSYIYYADSVKGRFTISRDNAKNSLYLQMNSLRAEDTAVYYCARVSTELGYYYMDVWGKGTTVTVSS VL: not shown	22.8	4.44	> 10	–
